In article PMC10371251:

Tested on: FLAG-cGAS (Homo sapiens)
Test: pull-down (streptavidin, Western blot; ligand transfected into HEK293T 2 h)
Conditions: 5' or 3' position of biotin not stated, forward strand biotinylated, reverse unmodified, HEK293T transfected with 4 ug/mL biotin-ISD45 for 2 h, then streptavidin IP, IP buffer, pH and temperature not in the material (oligo annealing: 5 mM Tris pH 7.)

In the case of biotinylated ISD45, the binding signal (fold of empty vector) (WT SRC-HA coexpressed) is reported as 0.466 and the binding signal (fold of empty vector) (empty vector, no SRC-HA, non-biotinylated ISD45 background 0.1436) is reported as 1.
